Settings in all cases: 20 nM; 72 h
Data set [1] concerns MCF10A. The experiment in a line: percent viability (nuclei count relative to siNT); higher = more viable cells. As to the method: (§1)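 After 72 h, cells were fixed and stained with Hoechst and anti-fibrillarin, and nucleoli per nucleus were counted with CellProfiler. Values are plate-adjusted percent effect for the one-nucleolus and 5+ nucleoli phenotypes, normalised to siNT (0%) and to the positive controls siNOL11 or siKIF11 (100%), as the mean of biological triplicates. Percent viability is the nuclei count relative to siNT.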

Data set [2] deals with MCF10A. The experiment in a line: 5+ nucleoli phenotype percent effect (relative to siNT 0% and siKIF11 100%); higher = more cells with five or more nucleoli. As to the method: as §1
Data set [3] deals with MCF10A. The experiment in a line: one-nucleolus phenotype percent effect (relative to siNT 0% and siNOL11 100%); higher = more cells with one nucleolus (ribosome biogenesis inhibition). As to the method:
as §1

Data on 36 sequences can be found in the supplement of paper PMC10899765.

Regarding “ACCACUGACCGUUGACUGUACC [hsa-miR-181a-2-3p]”, the percent viability in the data set with MCF10A [1] stood at 120%. For the same sequence, the “5+ nucleoli phenotype percent effect” value in the data set on MCF10A [2] stood at 12.6%. The “one-nucleolus phenotype percent effect” value with MCF10A [3] is -14.1%.
As for “GCGGUGAUCCCGAUGGUGUGAGC [hsa-miR-598-5p]”, in the data set with MCF10A [1], the percent viability was 93.1%. The “5+ nucleoli phenotype percent effect” value with MCF10A [2] came out at 32.8%. The “one-nucleolus phenotype percent effect” value with MCF10A [3] was -24%.
For “ACAGAGGACAGUGGAGUGUGAGC [hsa-miR-6847-5p]”, in that order: 51.1%, -1.34% and -1.08%.
For GGCUAGCAACAGCGCUUACCU [hsa-miR-621], in that order: 51.6%, -15.8% and 15.2%.
For “UGAGAACUGACAAAUGUGGUAGG [hsa-miR-7153-5p]”, in that order: 61.9%, 14% and -18.9%.
On to “CUCGGCCGCGGCGCGUAGCCCCCGCC [hsa-miR-4665-3p]”, for which the percent viability with MCF10A [1] came to 75.2%. Also, the “5+ nucleoli phenotype percent effect” value in the data set on MCF10A [2] amounted to 22%. In the data set on MCF10A [3], the “one-nucleolus phenotype percent effect” value was -15.1%.
With UUAUGGUUUGCCUGGGACUGAG [hsa-miR-584-5p], the percent viability in the data set on MCF10A [1] was determined as 77.9%. Besides, in the data set on MCF10A [2], the “5+ nucleoli phenotype percent effect” value turned out to be 35%. The “one-nucleolus phenotype percent effect” value with MCF10A [3] was -25.7%.
For UCCUGCGCGUCCCAGAUGCCC [hsa-miR-1539], in that order: 60.9%, -2.94% and 15.6%.
CAGGAUGUGGUCAAGUGUUGUU [hsa-miR-1265]: the percent viability in the data set with MCF10A [1] was found to be 123%. Also, in the data set with MCF10A [2], the “5+ nucleoli phenotype percent effect” value stood at 67.6%. Moreover, in the data set with MCF10A [3], the “one-nucleolus phenotype percent effect” value was -25.1%.
For UGUCAGUUUGUCAAAUACCCCA [hsa-miR-223-3p], in that order: 86.9%, 7.19% and -4.68%.
For “CCCCUGGGGCUGGGCAGGCGGA [hsa-miR-6791-5p]”, in that order: 107%, 45.9% and -13.7%.
In the case of “UGGGGGGACAGGAUGAGAGGCUGU [hsa-miR-6795-5p]”, the percent viability with MCF10A [1] amounted to 16.8%. In the data set with MCF10A [2], the “5+ nucleoli phenotype percent effect” value was -6.99%. The “one-nucleolus phenotype percent effect” value in the data set on MCF10A [3] worked out at 28.6%.
For the sequence “UUCUCCAAAAGAAAGCACUUUCUG [hsa-miR-515-5p]”, the percent viability in the data set on MCF10A [1] came out at 91.4%. Also, the “5+ nucleoli phenotype percent effect” value in the data set with MCF10A [2] came to 3.02%. Besides, the “one-nucleolus phenotype percent effect” value in the data set with MCF10A [3] was -9.79%.
The like results for “UCUGUCAUUUCUUUAGGCCAAUA [hsa-miR-215-3p]” were, in that order, 39.5%, -6.58% and 2.4%.
As to CCGGCCGCCGGCUCCGCCCCG [hsa-miR-1908-3p], the percent viability in the data set on MCF10A [1] was 96%. Also, the “5+ nucleoli phenotype percent effect” value with MCF10A [2] was found to be 44.4%. Also, the “one-nucleolus phenotype percent effect” value in the data set with MCF10A [3] is -14.6%.
As to “ACCACUGCACUCCAGCCUGAG [hsa-miR-1273g-3p]”, the percent viability in the data set on MCF10A [1] was 39.3%. In addition, the “5+ nucleoli phenotype percent effect” value in the data set on MCF10A [2] was -16.5%. In addition, the “one-nucleolus phenotype percent effect” value with MCF10A [3] turned out to be 5.96%.
As for “UCGUAUCAGAGAUUCCAGACAC [hsa-miR-6506-3p]”, in the data set on MCF10A [1], the percent viability stood at 85.1%. In addition, the “5+ nucleoli phenotype percent effect” value in the data set with MCF10A [2] is -11.2%. Moreover, the “one-nucleolus phenotype percent effect” value in the data set with MCF10A [3] worked out at 5.43%.
As to “GUAGAUUCUCCUUCUAUGAGUA [hsa-miR-376a-5p]”, the percent viability in the data set on MCF10A [1] was found to be 24.5%. Moreover, in the data set on MCF10A [2], the “5+ nucleoli phenotype percent effect” value stood at 11.8%. Also, in the data set on MCF10A [3], the “one-nucleolus phenotype percent effect” value is -7.97%.
For GAAGAAUAGGAGGGACUUUGU [hsa-miR-6507-5p], in that order: 79.1%, 35.1% and -12.9%.
CCCCUGGGCCGGCCUUGG [hsa-miR-4292]: in the data set on MCF10A [1], the percent viability amounted to 26.6%. The “5+ nucleoli phenotype percent effect” value with MCF10A [2] stood at 31.4%. For the same sequence, in the data set with MCF10A [3], the “one-nucleolus phenotype percent effect” value was determined as 4.18%.
The like results for AAUCAUACACGGUUGACCUAUU [hsa-miR-154-3p] were, in that order, 67.2%, -5.26% and -0.992%.
On to CCUAGAAACUGUAAACUUAGUC [hsa-miR-8067], for which the percent viability with MCF10A [1] stood at 108%. The “5+ nucleoli phenotype percent effect” value in the data set on MCF10A [2] is 47.4%. Besides, the “one-nucleolus phenotype percent effect” value with MCF10A [3] is -35.3%.
The like results for GACUGACACCUCUUUGGGUGAA [hsa-miR-888-3p] were, in that order, 84.1%, 8.85% and -18.1%.
For “AUGAAGUGCACUCAUGAUAUGU [hsa-miR-3616-5p]”, in that order: 27.9%, -38.4% and 32.7%.
For UCAGUAAAUGUUUAUUAGAUGA [hsa-miR-545-5p], in that order: 175%, 38.8% and -24.2%.
Regarding UAGCAGCACGUAAAUAUUGGCG [hsa-miR-16-5p], the percent viability with MCF10A [1] was 15.8%. Moreover, the “5+ nucleoli phenotype percent effect” value in the data set with MCF10A [2] is -19.3%. The “one-nucleolus phenotype percent effect” value in the data set on MCF10A [3] amounted to 27.2%.
In the case of GGUUCUUAGCAUAGGAGGUCU [hsa-miR-2116-5p], the percent viability with MCF10A [1] was determined as 35.2%. The “5+ nucleoli phenotype percent effect” value with MCF10A [2] is -5.52%. For the same sequence, the “one-nucleolus phenotype percent effect” value in the data set on MCF10A [3] stood at 12.8%.
The like results for ACCCUUUUUCUCUUUCCCAG [hsa-miR-6832-3p] were, in that order, 76.6%, 38.2% and -12.4%.
In the case of UGUCACUCGGCUCGGCCCACUAC [hsa-miR-668], in the data set with MCF10A [1], the percent viability amounted to 60.6%. In the data set on MCF10A [2], the “5+ nucleoli phenotype percent effect” value was -8.26%. Further, in the data set on MCF10A [3], the “one-nucleolus phenotype percent effect” value was -1.34%.
“AUCCUCUCUUCCCUCCUCCCAG [hsa-miR-7111-3p]”: the percent viability in the data set with MCF10A [1] was 47.3%. Moreover, the “5+ nucleoli phenotype percent effect” value in the data set with MCF10A [2] was -40%. For the same sequence, in the data set on MCF10A [3], the “one-nucleolus phenotype percent effect” value is 3.35%.
For GGCCACUGAGUCAGCACCA [hsa-miR-4252], in that order: 46.1%, 5.41% and -3.69%.
For GAGCUUAUUCAUAAAAGUGCAG [hsa-miR-590-5p], in that order: 66.5%, -1.22% and -0.31%.
On to GCUGGGAUUACAGGCAUGAGCC [hsa-miR-619-5p], for which the percent viability in the data set with MCF10A [1] was determined as 50%. Besides, the “5+ nucleoli phenotype percent effect” value in the data set with MCF10A [2] was determined as 19%. For the same sequence, the “one-nucleolus phenotype percent effect” value in the data set with MCF10A [3] is -9.05%.
The like results for CCUGCGAGUCUCCGGCGGUGG [hsa-miR-6068] were, in that order, 97.4%, 24.3% and -17.2%.
For UGAGGUAGUAGUUUCUU [hsa-miR-4500], in that order: 89.3%, 43.2% and -31.4%.
In the case of UGCCUCCCUGACAUUCCACAG [hsa-miR-6778-3p], the percent viability with MCF10A [1] was found to be 7.57%. The “5+ nucleoli phenotype percent effect” value in the data set with MCF10A [2] is -21%. Further, the “one-nucleolus phenotype percent effect” value in the data set with MCF10A [3] turned out to be 10.1%.
